T1: FcγRIIb extracellular domain with C-terminal His tag (human, UniProt P31994 43-217)
T1 construct: extracellular domain; Expressed in FreeStyle293 cells; used as analyte in Biacore; also called FcgRIIb; 2b; not shown: C-terminal His tag
T1 sequence (looked up): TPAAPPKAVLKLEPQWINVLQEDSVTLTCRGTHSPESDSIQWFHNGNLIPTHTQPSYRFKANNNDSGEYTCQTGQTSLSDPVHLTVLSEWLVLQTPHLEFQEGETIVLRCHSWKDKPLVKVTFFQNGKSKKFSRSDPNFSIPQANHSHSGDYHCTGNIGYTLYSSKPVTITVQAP

B1: GpH7-B3 variant T335_09D/GpL16-k0 (Ho Ab) (antibody, human IgG1, kappa)
heavy: not shown
light: DIVMTQSPLSLPVTPGEPASISCQASESLVHSNRNTYLHWYLQKPGQSPQLLIYKVSNRFSGVPDRFSGSGSGTDFTLKISRVEAEDVGVYYCSQNTHVPPTFGQGTKVEIERTVAAPSVFIFPPSDEQLKSGTASVVCLLNNFYPREAKVQWKVDNALQSGNSQESVTEQDSKDSTYSLSSTLTLSKADYEKHKVYACEVTHQGLSSPVTKSFNRGEC
notes: Substitution in both H chains; position in EU numbering; also called T335D homodimerized antibody
B2: GpH7-B3 variant P271_01G/GpL16-k0 (Ho Ab) (antibody, human IgG1, kappa)
heavy: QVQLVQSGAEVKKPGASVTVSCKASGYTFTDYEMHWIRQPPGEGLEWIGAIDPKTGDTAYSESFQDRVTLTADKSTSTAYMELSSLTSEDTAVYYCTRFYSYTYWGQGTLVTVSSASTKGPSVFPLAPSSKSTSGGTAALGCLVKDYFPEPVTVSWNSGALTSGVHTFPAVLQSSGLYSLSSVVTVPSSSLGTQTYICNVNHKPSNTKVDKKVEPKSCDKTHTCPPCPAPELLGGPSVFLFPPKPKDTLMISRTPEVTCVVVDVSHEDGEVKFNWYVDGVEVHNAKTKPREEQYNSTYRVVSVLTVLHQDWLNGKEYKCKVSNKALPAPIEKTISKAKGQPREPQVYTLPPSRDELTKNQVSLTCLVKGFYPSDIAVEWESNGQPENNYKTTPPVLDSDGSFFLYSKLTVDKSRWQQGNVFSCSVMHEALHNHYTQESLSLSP
light: B1 light
notes: Substitution in both H chains; position in EU numbering; also called P271G homodimerized antibody
B3: GpH7-B3 variant K334_16H/GpL16-k0 (Ho Ab) (antibody, human IgG1, kappa)
heavy: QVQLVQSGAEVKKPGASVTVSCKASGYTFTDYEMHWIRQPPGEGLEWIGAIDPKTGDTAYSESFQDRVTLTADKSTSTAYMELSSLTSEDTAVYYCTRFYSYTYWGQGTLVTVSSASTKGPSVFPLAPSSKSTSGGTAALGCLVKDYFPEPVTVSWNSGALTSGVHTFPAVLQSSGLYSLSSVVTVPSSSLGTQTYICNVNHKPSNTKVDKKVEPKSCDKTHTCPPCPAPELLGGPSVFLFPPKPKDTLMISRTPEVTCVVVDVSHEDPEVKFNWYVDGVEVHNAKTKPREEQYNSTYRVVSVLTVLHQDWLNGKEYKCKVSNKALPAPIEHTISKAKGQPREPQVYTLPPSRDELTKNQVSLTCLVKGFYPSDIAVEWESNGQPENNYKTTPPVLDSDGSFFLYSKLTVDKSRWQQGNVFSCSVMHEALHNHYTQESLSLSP
light: B1 light
notes: Substitution in both H chains; position in EU numbering; also called K334H homodimerized antibody
B4: GpH7-B3 variant L328_07I/GpL16-k0 (Ho Ab) (antibody, human IgG1, kappa)
heavy: not shown
light: B1 light
notes: Substitution in both H chains; position in EU numbering; also called L328I homodimerized antibody
B5: GpH7-B3 variant L328_15Y/GpL16-k0 (Ho Ab) (antibody, human IgG1, kappa)
heavy: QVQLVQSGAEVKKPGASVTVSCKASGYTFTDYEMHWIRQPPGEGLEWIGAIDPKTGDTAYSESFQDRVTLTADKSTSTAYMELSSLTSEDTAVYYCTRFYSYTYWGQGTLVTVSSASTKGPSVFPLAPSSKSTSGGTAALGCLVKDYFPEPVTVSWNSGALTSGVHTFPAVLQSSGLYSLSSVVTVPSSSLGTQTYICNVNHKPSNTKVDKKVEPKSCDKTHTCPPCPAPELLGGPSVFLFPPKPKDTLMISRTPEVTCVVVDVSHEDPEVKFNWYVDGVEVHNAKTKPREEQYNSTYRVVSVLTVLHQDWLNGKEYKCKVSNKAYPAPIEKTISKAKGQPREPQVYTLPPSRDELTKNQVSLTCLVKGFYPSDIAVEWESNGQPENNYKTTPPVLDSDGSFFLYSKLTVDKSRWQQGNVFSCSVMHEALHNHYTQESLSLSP
light: B1 light
notes: Substitution in both H chains; position in EU numbering; also called L328Y homodimerized antibody
B6: GpH7-B3 variant P238_08L/GpL16-k0 (Ho Ab) (antibody, human IgG1, kappa)
heavy: not shown
light: B1 light
notes: Substitution in both H chains; position in EU numbering; also called P238L homodimerized antibody
B7: GpH7-B3 variant S239_18N/GpL16-k0 (Ho Ab) (antibody, human IgG1, kappa)
heavy: not shown
light: B1 light
notes: Substitution in both H chains; position in EU numbering; also called S239N homodimerized antibody
B8: GpH7-B3 variant S267_02A/GpL16-k0 (Ho Ab) (antibody, human IgG1, kappa)
heavy: not shown
light: B1 light
notes: Substitution in both H chains; position in EU numbering; also called S267A homodimerized antibody
B9: GpH7-B3 variant S239_07I/GpL16-k0 (Ho Ab) (antibody, human IgG1, kappa)
heavy: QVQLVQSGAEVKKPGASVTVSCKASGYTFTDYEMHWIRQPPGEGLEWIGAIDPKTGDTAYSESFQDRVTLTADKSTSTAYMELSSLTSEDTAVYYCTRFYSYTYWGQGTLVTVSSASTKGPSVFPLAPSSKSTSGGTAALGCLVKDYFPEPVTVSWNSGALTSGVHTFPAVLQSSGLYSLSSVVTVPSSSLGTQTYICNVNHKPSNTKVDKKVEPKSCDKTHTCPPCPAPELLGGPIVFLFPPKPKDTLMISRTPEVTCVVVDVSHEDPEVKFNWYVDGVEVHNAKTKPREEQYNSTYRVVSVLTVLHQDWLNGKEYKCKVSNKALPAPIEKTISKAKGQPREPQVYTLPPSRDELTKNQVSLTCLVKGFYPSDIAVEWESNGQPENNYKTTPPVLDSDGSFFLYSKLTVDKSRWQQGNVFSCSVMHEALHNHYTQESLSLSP
light: B1 light
notes: Substitution in both H chains; position in EU numbering; also called S239I homodimerized antibody
B10: GpH7-B3 variant S239_08L/GpL16-k0 (Ho Ab) (antibody, human IgG1, kappa)
heavy: not shown
light: B1 light
notes: Substitution in both H chains; position in EU numbering; also called S239L homodimerized antibody
B11: GpH7-B3 variant S267_10E/GpL16-k0 (Ho Ab) (antibody, human IgG1, kappa)
heavy: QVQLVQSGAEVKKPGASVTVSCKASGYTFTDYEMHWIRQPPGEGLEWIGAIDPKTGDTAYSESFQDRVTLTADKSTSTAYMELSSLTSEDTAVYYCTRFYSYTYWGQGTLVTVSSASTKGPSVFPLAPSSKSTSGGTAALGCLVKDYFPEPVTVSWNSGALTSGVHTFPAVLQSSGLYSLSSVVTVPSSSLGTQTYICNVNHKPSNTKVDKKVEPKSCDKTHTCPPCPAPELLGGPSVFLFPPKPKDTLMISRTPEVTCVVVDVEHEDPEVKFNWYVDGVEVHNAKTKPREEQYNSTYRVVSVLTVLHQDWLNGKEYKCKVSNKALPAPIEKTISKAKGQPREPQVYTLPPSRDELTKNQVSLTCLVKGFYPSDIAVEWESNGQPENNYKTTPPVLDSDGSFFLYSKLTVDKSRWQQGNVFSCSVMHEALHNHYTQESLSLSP
light: B1 light
notes: Substitution in both H chains; position in EU numbering; also called S267E homodimerized antibody
B12: GpH7-B3 variant L328_19Q/GpL16-k0 (Ho Ab) (antibody, human IgG1, kappa)
heavy: not shown
light: B1 light
notes: Substitution in both H chains; position in EU numbering; also called L328Q homodimerized antibody
B13: GpH7-B3 variant S239_01G/GpL16-k0 (Ho Ab) (antibody, human IgG1, kappa)
heavy: not shown
light: B1 light
notes: Substitution in both H chains; position in EU numbering; also called S239G homodimerized antibody
B14: GpH7-B3 variant S239_09D/GpL16-k0 (Ho Ab) (antibody, human IgG1, kappa)
heavy: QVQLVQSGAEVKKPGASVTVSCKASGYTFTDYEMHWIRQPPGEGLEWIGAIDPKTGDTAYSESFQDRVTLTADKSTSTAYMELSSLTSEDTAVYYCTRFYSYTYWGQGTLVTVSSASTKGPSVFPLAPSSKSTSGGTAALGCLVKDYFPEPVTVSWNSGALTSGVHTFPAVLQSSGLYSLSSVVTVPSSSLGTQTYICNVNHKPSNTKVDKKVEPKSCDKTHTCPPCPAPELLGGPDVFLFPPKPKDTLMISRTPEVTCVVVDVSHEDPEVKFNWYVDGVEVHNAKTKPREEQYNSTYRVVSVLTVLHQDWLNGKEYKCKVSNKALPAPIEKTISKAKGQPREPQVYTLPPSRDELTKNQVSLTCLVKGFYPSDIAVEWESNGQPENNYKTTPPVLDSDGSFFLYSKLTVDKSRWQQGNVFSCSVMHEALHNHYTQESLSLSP
light: B1 light
notes: Substitution in both H chains; position in EU numbering; also called S239D homodimerized antibody
B15: GpH7-B3 variant K334_19Q/GpL16-k0 (Ho Ab) (antibody, human IgG1, kappa)
heavy: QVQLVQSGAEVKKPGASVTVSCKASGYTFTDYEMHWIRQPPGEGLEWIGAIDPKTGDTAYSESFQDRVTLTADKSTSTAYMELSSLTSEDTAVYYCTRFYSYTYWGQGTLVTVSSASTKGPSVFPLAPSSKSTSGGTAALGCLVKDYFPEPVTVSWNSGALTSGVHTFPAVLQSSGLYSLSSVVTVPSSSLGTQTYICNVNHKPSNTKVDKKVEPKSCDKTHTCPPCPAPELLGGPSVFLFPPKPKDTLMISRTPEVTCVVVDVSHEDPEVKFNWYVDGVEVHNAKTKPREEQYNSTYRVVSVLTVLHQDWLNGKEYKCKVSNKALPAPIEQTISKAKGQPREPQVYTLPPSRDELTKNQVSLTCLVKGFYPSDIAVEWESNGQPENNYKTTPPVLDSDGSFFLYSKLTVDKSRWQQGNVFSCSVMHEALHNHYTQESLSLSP
light: B1 light
notes: Substitution in both H chains; position in EU numbering; also called K334Q homodimerized antibody
B16: GpH7-B3 variant L328_04F/GpL16-k0 (Ho Ab) (antibody, human IgG1, kappa)
heavy: not shown
light: B1 light
notes: Substitution in both H chains; position in EU numbering; also called L328F homodimerized antibody
B17: GpH7-B3 variant S267_08L/GpL16-k0 (Ho Ab) (antibody, human IgG1, kappa)
heavy: not shown
light: B1 light
notes: Substitution in both H chains; position in EU numbering; also called S267L homodimerized antibody
B18: GpH7-B3 variant S267_03V/GpL16-k0 (Ho Ab) (antibody, human IgG1, kappa)
heavy: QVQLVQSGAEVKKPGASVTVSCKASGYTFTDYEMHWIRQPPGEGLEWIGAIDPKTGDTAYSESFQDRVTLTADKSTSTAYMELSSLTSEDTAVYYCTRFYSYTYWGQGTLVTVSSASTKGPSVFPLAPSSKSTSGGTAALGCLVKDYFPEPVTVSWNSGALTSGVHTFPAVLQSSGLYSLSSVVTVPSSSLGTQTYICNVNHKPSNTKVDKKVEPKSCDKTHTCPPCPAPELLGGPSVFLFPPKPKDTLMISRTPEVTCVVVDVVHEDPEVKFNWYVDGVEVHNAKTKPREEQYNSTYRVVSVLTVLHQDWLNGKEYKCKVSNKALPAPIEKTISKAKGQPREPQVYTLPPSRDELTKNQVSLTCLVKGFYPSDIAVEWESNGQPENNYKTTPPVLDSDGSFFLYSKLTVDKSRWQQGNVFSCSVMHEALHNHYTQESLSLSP
light: B1 light
notes: Substitution in both H chains; position in EU numbering; also called S267V homodimerized antibody
B19: GpH7-B3 variant P271_08L/GpL16-k0 (Ho Ab) (antibody, human IgG1, kappa)
heavy: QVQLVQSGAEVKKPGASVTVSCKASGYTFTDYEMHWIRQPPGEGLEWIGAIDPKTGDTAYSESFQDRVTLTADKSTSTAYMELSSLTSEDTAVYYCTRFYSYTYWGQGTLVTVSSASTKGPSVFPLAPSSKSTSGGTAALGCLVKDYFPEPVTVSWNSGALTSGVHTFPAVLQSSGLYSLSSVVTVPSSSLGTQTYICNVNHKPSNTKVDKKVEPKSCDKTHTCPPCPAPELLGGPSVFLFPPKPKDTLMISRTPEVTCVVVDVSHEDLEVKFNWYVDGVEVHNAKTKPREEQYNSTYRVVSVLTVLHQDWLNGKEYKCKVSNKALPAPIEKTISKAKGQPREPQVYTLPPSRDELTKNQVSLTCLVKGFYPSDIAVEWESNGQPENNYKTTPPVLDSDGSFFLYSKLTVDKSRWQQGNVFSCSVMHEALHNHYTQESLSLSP
light: B1 light
notes: Substitution in both H chains; position in EU numbering; also called P271L homodimerized antibody
B20: GpH7-B3 variant P331_04F/GpL16-k0 (Ho Ab) (antibody, human IgG1, kappa)
heavy: not shown
light: B1 light
notes: Substitution in both H chains; position in EU numbering; also called P331F homodimerized antibody
B21: GpH7-B3 variant S337_14T/GpL16-k0 (Ho Ab) (antibody, human IgG1, kappa)
heavy: not shown
light: B1 light
notes: Substitution in both H chains; position in EU numbering; also called S337T homodimerized antibody
B22: GpH7-B3 variant L328_14T/GpL16-k0 (Ho Ab) (antibody, human IgG1, kappa)
heavy: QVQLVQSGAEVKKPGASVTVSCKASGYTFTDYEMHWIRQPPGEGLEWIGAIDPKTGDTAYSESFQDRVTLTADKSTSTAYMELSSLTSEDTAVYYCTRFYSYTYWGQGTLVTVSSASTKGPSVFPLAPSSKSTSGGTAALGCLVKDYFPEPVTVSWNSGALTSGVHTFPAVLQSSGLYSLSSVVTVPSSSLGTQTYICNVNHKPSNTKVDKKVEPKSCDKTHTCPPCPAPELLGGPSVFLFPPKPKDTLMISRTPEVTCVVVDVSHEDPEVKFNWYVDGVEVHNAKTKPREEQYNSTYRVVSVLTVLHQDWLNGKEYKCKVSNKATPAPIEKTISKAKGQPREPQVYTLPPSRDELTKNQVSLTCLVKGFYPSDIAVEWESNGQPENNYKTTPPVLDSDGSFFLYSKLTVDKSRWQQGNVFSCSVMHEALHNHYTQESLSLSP
light: B1 light
notes: Substitution in both H chains; position in EU numbering; also called L328T homodimerized antibody
B23: GpH7-B3 variant S337_10E/GpL16-k0 (Ho Ab) (antibody, human IgG1, kappa)
heavy: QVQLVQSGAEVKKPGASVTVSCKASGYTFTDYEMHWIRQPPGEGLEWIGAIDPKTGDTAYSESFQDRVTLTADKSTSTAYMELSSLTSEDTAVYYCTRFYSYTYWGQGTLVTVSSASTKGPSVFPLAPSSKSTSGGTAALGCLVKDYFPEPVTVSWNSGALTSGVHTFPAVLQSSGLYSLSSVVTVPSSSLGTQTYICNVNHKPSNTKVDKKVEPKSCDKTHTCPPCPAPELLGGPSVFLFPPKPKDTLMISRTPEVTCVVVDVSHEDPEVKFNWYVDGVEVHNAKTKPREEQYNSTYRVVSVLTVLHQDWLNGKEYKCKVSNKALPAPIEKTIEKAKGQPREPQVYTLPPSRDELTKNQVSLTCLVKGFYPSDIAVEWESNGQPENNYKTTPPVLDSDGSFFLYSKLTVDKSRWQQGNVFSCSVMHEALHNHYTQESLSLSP
light: B1 light
notes: Substitution in both H chains; position in EU numbering; also called S337E homodimerized antibody

Target: T1, FcγRIIb extracellular domain with …
Experiment: SPR (Biacore), antibody captured on antigen-peptide chip, FcgRIIb as analyte; binding relative to GpH7-B3/GpL16-k0 (HoCon Ab) = 100

Ho/Con_2b	Binder
116 % of control	B1
229 % of control	B2
124 % of control	B3
188 % of control	B4
272 % of control	B5
235 % of control	B6
125 % of control	B7
274 % of control	B8
108 % of control	B9
142 % of control	B10
396 % of control	B11
111 % of control	B12
174 % of control	B13
224 % of control	B14
117 % of control	B15
241 % of control	B16
109 % of control	B17
206 % of control	B18
113 % of control	B19
113 % of control	B20
110 % of control	B21
146 % of control	B22
109 % of control	B23

Source: patent publication US20180155451A1 (published 2018)
